Literature values as cited in PMC3139910.

Target: CCR7 (Homo sapiens) (UniProt P32248)
Chain of UniProt P32248 (P32248 25-378): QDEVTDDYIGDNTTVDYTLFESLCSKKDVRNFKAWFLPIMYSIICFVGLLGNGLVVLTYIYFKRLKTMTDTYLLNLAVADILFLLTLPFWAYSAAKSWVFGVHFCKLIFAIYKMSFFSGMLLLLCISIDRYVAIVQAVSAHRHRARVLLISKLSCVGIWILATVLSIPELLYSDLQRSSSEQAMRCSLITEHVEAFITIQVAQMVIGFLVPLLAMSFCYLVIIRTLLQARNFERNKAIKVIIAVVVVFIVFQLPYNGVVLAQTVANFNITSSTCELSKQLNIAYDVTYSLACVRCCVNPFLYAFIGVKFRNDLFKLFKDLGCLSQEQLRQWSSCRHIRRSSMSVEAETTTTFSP

Kd: 5 nM
Substance: CCL21 (from UniProt O00585)
